In patent US20260083855A1:

Legend:
Assay in all cases: cell-based or functional assay
[1] = molecular target: IL-2R on human cells (activated CD4 T cells, PBMC subsets, NK92) (human) (UniProt P14784); set-up: AUC of STAT5-P on PD1+ T cells / AUC of STAT5-P on PD1-blocked T cells: unit not given beside the values
[2] = molecular target: IL-2R on human cells (activated CD4 T cells, PBMC subsets, NK92) (human) (UniProt P14784); set-up: EC50 on MFI of STAT5-P, PD-1+ CD4 T cells: unit not given beside the values
[3] = molecular target: IL-2R on human cells (activated CD4 T cells, PBMC subsets, NK92) (human) (UniProt P14784)

IL-2R on human cells (activated CD4 T cells, PBMC subsets, NK92) (human), sequence (P14784 27-551, chain 1 of 2): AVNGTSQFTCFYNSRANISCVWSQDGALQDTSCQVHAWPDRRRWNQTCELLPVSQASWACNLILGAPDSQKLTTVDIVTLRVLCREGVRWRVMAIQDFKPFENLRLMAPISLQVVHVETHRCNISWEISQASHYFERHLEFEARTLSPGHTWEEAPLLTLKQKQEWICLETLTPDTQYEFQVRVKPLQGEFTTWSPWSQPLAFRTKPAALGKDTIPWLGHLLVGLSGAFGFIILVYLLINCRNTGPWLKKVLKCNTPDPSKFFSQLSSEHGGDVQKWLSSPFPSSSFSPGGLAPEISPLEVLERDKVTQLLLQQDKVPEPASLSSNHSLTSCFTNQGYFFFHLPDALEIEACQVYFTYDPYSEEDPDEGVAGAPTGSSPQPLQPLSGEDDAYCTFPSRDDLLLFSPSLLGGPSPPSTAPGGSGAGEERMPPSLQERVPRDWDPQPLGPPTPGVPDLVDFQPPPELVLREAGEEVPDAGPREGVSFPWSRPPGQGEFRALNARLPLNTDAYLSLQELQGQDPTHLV
IL-2R on human cells (activated CD4 T cells, PBMC subsets, NK92) (human), sequence (P31785 23-369, chain 2 of 2, further chain): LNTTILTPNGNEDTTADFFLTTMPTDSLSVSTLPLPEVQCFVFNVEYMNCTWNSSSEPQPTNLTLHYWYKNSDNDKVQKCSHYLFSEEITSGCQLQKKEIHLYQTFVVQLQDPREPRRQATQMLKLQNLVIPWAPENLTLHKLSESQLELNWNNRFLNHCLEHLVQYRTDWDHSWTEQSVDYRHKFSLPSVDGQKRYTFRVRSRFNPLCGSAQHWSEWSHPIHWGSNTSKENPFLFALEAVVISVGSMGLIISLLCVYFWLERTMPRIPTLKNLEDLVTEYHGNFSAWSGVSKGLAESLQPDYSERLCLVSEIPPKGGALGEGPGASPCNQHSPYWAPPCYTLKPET

- AUC of STAT5-P on PD1+ T cells [1]: 144
- AUC of STAT5-P on PD1-blocked T cells [1]: 142
- Potency reduction vs PD1-IL2v [1]: 8.13 fold
- EC50 on MFI of STAT5-P, PD-1+ CD4 T cells [2]: 8530
- Potency reduction versus PD1-IL2v (MFI) [2]: 12.6 fold
- Potency reduction versus PD1-IL2v (frequency) [2]: 12.9 fold
- Percentage of internalization (0.6 nM, activated CD4 T cells, 3 h at 37 C) [3]: 89.8%
- Potency reduction vs PD1-IL2v on PD-1+ LAG-3+ T cells [3]: 107 fold
Substance: FAP-IL2v
